Test results taken from patent US9260754B2, “Connexin mutation detection for lymphatic variation and disease” (University of Pittsburgh—Of the Commonwealth System of …, priority 2010, dated 2016).
Where no end group is shown, it is not given here.

B1: P381S: Cx47 missense mutant P381S (1141C>T), C terminal, construct expressed in HeLa cells or LECs (protein, listed as Homo sapiens)
chain: MSWSFLTRLLEEIHNHSTFVGKVWLTVLVVFRIVLTAVGGEAIYSDEQAKFTCNTRQPGCDNVCYDAFAPLSHVRFWVFQIVVISTPSVMYLGYAVHRLARASEQERRRALRRRPGPRRAPRAHLPPPHAGWPEPADLGEEEPMLGLGEEEEEEETGAAEGAGEEAEEAGAEEACTKAVGADGKAAGTPGPTGQHDGRRRIQREGLMRVYVAQLVARAAFEVAFLVGQYLLYGFEVRPFFPCSRQPCPHVVDCFVSRPTEKTVFLLVMYVVSCLCLLLNLCEMAHLGLGSAQDAVRGRRGPPASAPAPAPRPPPCAFPAAAAGLACPPDYSLVVRAAERARAHDQNLANLALQALRDGAAAGDRDRDSSPCVGLPAASRGSPRAGAPASRTGSATSAGTVGEQGRPGTHERPGAKPRAGSEKGSASSRDGKTTVWI

Key:
[1] = test system: hTERTs (telomerase-transfected human dermal lymphatic endothelial cells); assay: Intercellular communication assay (parachute Calcein AM dye transfer) with gap junction inhibitors; format: cell-based; details: GRA 10 μM, Gap 27 500 μM, 40 min, versus control, p<0.05
Description: To characterize intercellular gap junction communication over time between seeded donor cells and an acceptor monolayer, LECs were loaded with 2.5 μM Calcein-AM (Invitrogen) in (PBS) for 30 min at 37° C. Excessive dye was removed by rinsing three times in PBS before dislodgment using 500 μl 0.25% Trypsin-EDTA. Detached cells were dispersed with a pipette and 10 μl cell suspensions was added to a confluent LEC monolayer in MCDB-131 supplemented with 25 mM HEPES. To ensure attachment of dye loaded suspended cells, the dish was incubated at 37° C. for 40 min prior to syringe filtration of the medium to remove floating cells that would interfere with subsequent imaging. The dish was thereafter mounted in a temperature controlled open chamber microincubator (Harvard Apparatus) on an inverted Olympus IX81 microscope. […] The Gap27 was handled similarly to GRA and a DMSO control was measured on the same day. Significance was assigned at p<0.05 and treatments were analyzed as independent samples using a Student's t-test. […]
Calcein AM allows cell permeable loading, and with a molecular weight of 662, is frequently used in gap junction communication studies. […] Replicate blinded experiments were performed on at least 2 separate days, and quantitation of dye spread was determined in an automated manner using Metamorph and standardized regions of interest with auto-thresholding. […]

HeLa cells [2] = assay: Cx47 gap junction plaque formation by immunofluorescent confocal microscopy in transfected HeLa cells; format: cell-based, human; details: near confluent transfected HeLa cells
Description: Human neonatal foreskin was collected anonymously as discarded tissue according to an IRB protocol. Samples were collected immediately after harvest in DMEM, then fixed in 2% paraformaldehyde for 2 hrs, then stored in 30% sucrose in 1×PBS overnight for cryosectioning, and sectioned in 6 μm slices at −30° C. Transfected (stable and transient) and untransfected HeLa cells were grown to near confluence in coverslip bottom dishes. All cells were rinsed with PBS and fixed with 2% paraformaldehyde. Subsequently, tissue and HeLa cells were processed similarly: following permeabilization with 0.1% Triton X, cells were blocked with 2% BSA. A human Cx47 antibody (ab) was obtained from the S. Scherer laboratory: polyclonal rabbit against amino acids 344-399 in the cytoplasmic C-terminal tail; we used human CNS tissue and positive oligodendrocyte staining as a positive control and primary antibody delete and rabbit IgG as negative controls (data not shown). Cx47 ab was diluted in 0.5% BSA in a 1:200 ratio, applied to cells and incubated at RT for one hour. Mouse monoclonal Proxl (Chemicon) was used as a lymphatic marker for the foreskin samples. Cells were incubated with the secondary abs (Donkey Anti-Rabbit Cy5 and Donkey Anti-Mouse Cy3; Invitrogen) for one hour at RT and washed; Draq5 was used as a nuclear marker. HeLa images were acquired with an inverted Olympus Fluoview 1000 Confocal Microscope 100× oil, 1.4 NA objective. Foreskin images were acquired on a Zeiss Meta LSM 510 inverted confocal microscope with 40× oil, 1.3 N.A. objective. LECs (primary human microvascular adult dermal lymphatics; Lonza) were grown in fibronectin coated coverslip bottom MatTeks dishes in EGM™-2 MV—Microvascular Endothelial Cell Medium-2 (Lonza Inc.) to approximately 80% confluence, and prepared similarly but a commercially available (AbCam) Cx47 ab, polyclonal rabbit against amino acids 41-70 in the human sequence was used along with Drag 5 nuclear marker and phalloidin to mark f-actin.
Immunofluorescence microscopy determines the presence or absence of Cx47 gap junction plaques when the constructs are transiently expressed in HeLa cells. Cx plaques reflect a physiologic accumulation of Cx channels in the cell membrane between cells (tens to thousands of channels); thus plaques are indicative of normal trafficking and gap junction formation at the cell membrane.
Immunofluorescence microscopy determines the presence or absence of Cx47 gap junction plaques when the constructs are transiently expressed in HeLa cells. A human Cx47 antibody was obtained: polyclonal rabbit against amino acids 344-399 in the cytoplasmic C-terminal tail (Orthmann-Murphy J L, et al. Mol Cell Neurosci 2007; 34:629-41); we used human CNS tissue and positive oligodendrocyte staining as a positive control and primary antibody delete as a negative control (data not shown). Cultured HeLa cells were routinely fixed and stained with the primary antibodies against Cx47, along with a nuclear marker, and transfected cells were identified by their EGFP signal. Plaques were imaged using an Olympus Fluoview 1000 confocal microscope, 100× oil objective.

[3] = test system: Adult human dermal lymphatic microvascular endothelial cells; assay: Lucifer yellow microinjection dye spread in lymphatic endothelial cells expressing mutant constructs; format: cell-based
Description: Adult human dermal lymphatic microvascular endothelial cells were cultured in EGM™-2 MV (both from Lonza). Cells were electroporated with 2 μg cDNA of the EGFP tagged mutant constructs and then selected with G418 as described above. Cells were microinjected using a combination (1:4 ratio) of 70 kd Texas Red dextran (Invitrogen) to mark injected cell for reference and Lucifer yellow, a known gap junction permeable dye (m.w. 443, −2 charge), to assess change in extent of spread (Abbaci M, et al. Advantages and limitations of commonly used methods to assay the molecular permeability of gap junctional intercellular communication. Biotechniques 2008; 45:33-52, 6-62). All cells were injected using constant conditions and cells were scored for dye spread in tiers from reference cell, using constant exposure time and thresholding, and were imaged using a Nikon TE2000 with temperature controlled motorized stage and Qlmaging Retiga CCD camera. Images were obtained using differential interference contrast (DIC) and standard filters for EGFP (identify expression of mutation), DAPI (for Lucifer yellow) and dsRed (for dextran) preinjection, immediately post-injection and 2 min after injection. Results were calculated as mean SEM and statistical significance was determined in comparison to WT-hCx47-EGFP expressing cells using a Mann-Whitney Test.

HeLa cells [4] = assay: Wound assay (proliferation/migration) in confluent transfected HeLa cells; format: cell-based, human; details: fraction of original wound in HeLa cell monolayer after 24 hrs; mean ± SEM
Description: The wound assay, a measure of proliferation/migration, was performed using differential interference contrast time lapse of over 24 hrs using confluent transfected HeLa cells. Analysis was done using TScratch (Geback T, et al. TScratch: a novel and simple software tool for automated analysis of monolayer wound healing assays. Biotechniques 2009; 46:265-74), mean±SEM of at least 10 positions along wound; the scrape width was normalized to the first image for each position. In all cases a two tailed student's T test was applied with p<0.05 considered significant.

HeLa cell pairs = assay: Dual whole cell patch clamp recording of coupling current in transfected HeLa cell pairs; format: cell-based, human
Description: Coupling currents were recorded using simultaneous double whole-cell patch clamp recordings from isolated pairs of cells that were in contact with one another (determined visually) as previously described. Briefly, the pipette solution consisted of (mM): 130 CsCl, 10 EGTA, 10 HEPES, 3 Mg-ATP, 2 Na-ATP, 0.5 CaCl2, pH 7.3. The culture was bathed in a solution consisting of (mM): 140 NaCl, 5 HEPES, 5 glucose, 4 KCl, 2 CsCl, 2 CaCl2, 2 pyruvate, 1 BaCl2, pH 7.3. Transfected HeLas undergo electrophysiologic analysis in a blinded manner. Pairs of cells were chosen for study only if both expressed the GFP marker indicative of successful transfections; both stable and transient transfectants were analyzed. Patch pipettes were fabricated from borosilicate glass, and coupling currents were amplified by Axopatch 200A amplifiers, filtered at 1 KHz, and digitized at 5 KHz for subsequent analysis using pClamp software (Axon Instruments/Molecular Devices; Sunnyvale, Calif.). All experiments were carried out at room temperature (22° C.). Coupling current was quantified by measuring the peak current recorded in the pair when the neighboring cell received a 100 mV step membrane potential change (in both positive and negative directions). Step changes in membrane potential were delivered to each cell in the pair in sequence and the average current recorded in the neighboring cell was determined and divided by 100 to generate coupling current expressed in pA/mV. Means±SEM were calculated and statistical significance using a one-way analysis of variance and Tukey's post-hoc test, p<0.05.
Coupling current is quantified by measuring the peak current recorded in the pair when the neighboring cell receives a 100 mV step membrane potential change (in both positive and negative directions). Step changes in membrane potential are delivered to each cell in the pair in sequence and the average current recorded in the neighboring cell determined and divided by 100 to generate coupling current expressed in pA/mV (FIG. 6C). Replicate measurements (n=3-6) are made on at least two different days. […] The untransfected HeLa cell pairs also show minimal channel function, as predicted.
Electrophysiologic characteristics of GJIC were measured between HeLa cell pairs transfected with the mutant constructs (as indicated by EGFP expression) by dual whole cell patch clamp recording. All experiments were carried out in a blinded manner. Coupling current is quantified by measuring the peak current recorded in the pair when the neighboring cell receives a 100 mV step membrane potential change (in both positive and negative directions). Step changes in membrane potential are delivered to each cell in the pair in sequence and the average current recorded in the neighboring cell determined and divided by 100 to generate coupling current expressed in pA/mV. Untransfected HeLa cells and cells transfected with empty vector (i.e., no hCx47) were used as additional controls.

Row | Molecule | GJIC by dye transfer in response to gap junction inhibitors [1] | Cx47 plaque formation (in words) (HeLa cells [2]) | LEC spread ([3]; Dye spread to tiers of LECs after 2 min, Lucifer yellow microinjection, mean ± SEM) [tiers] | dye transfer of Lucifer yellow after microinjection compared to WT-hCx47-EGFP expressing LECs (in words) ([3]; LECs expressing the mutations) | wound assay (HeLa cells [4]) | electrical coupling (HeLa cell pairs; Table 6 (Example 4), HeLa cell pairs, 100 mV step, mean ± SEM) [pA/mV] | electrical coupling / functional channels in HeLa cell pairs (in words) (HeLa cell pairs; transfected HeLa cell pairs, voltage step protocol −100 to +100 mV)
1 | CC1(C)[C@@H](O)CC[C@]2(C)[C@H]3C(=O)C=C4[C@@H]5C[C@@](C)(C(=O)O)CC[C@]5(C)CC[C@@]4(C)[C@]3(C)CC[C@@H]12 [GRA, 18α-glycyrrhetinic acid] | significantly reduced |  |  |  |  |  | 
2 | SRPTEKTIFII [Gap 27, Synthetic connexin-mimetic peptide targeted to extracellular loop 2 of Cx43] | significantly reduced |  |  |  |  |  | 
3 | B1 |  | Cx47 intercellular plaques | 2.26 | significantly enhanced dye transfer | 0.70 | 48.2 | well coupled
